Marks after values point to notes of the source that are not given here.
Tests used:
Type in all cases: biochemical
[1] = β-hydroxybutyryl-CoA dehydrogenase assay (NADH dependent reduction of acetoacetyl-CoA)
Protocol: (§1) Cultures for enzymatic assays were grown overnight in 100 mL of LB media at 37° C. in 250 mL baffled flasks (Wheaton Industries, Inc., Millville, N.J.) in E. coli BL21 (DE3) cells induced with either 1 mM IPTG (pCA24N, pTrcHis2A) or 1 mM Arabinose (pUCBB-pBAD) at an OD600˜0.6, or expressed constitutively (pUCBB-ntH6). Reactions were monitored on either a Synergy HT plate reader (BioTek Instruments, Inc., Winooski, Vt.) at 25° C. (for reactions monitored at 300 nm or higher) or in a Biomate 5 Spectrophotometer (Thermo Scientific, Waltham, Mass.) for reactions at 263 nm. […]
(§2) For kinetic characterization, his-tagged proteins of AtoB, FadA, FadB, caHBD, egTER were purified from the B-PER supernatant fractions using Talon Metal Affinity Resin (Clontech Laboratories, Inc., Mountain View, Calif.) using gravity purification. […] Enzyme concentration was established by measuring the absorbance at […] and extinction coefficients predicted for each enzyme by the ProtParam program (web.expasy.org/protparam/).
(§3) For kinetic characterization, an appropriate amount of enzyme was established by checking linear range near predicted KM values. Then, the rates were measured for a range of substrates in order to establish kcat and KM. […]

[2] = Butyryl-CoA dehydrogenase activity utilizing ferricenium ion
Protocol: Cells were lysed using Bacterial Protein Extraction Reagent (B-PER) (Thermo Scientific, Waltham, Mass.) as per the prescribed protocol in order to obtain the supernatant containing the active enzymes. FadE and YdiO were purified following previously established methods^45 using the same growth conditions mentioned above.
Cell pellets were resuspended in 40 mL of 50 mM potassium phosphate buffer pH 7.2 and broken by disruption EmulsiFlex-05 homogenizer (Avestin, Ottawa, ON). Disrupted cells were then spun for 90 min at 4° C. at 120,000×g in a Optima L-80XP Ultracentrifuge (Beckman-Coulter, Schaumburg, Ill.) to produce the supernatant used for assays.
For specific activity assays (reported in μmol substrate/mg protein/min) these supernatant fractions were utilized and protein concentration was established using the Bradford Reagent (Thermo Scientific, Waltham, Mass.) using BSA as the protein standard. Linearity was established for each reaction and the background non-enzymatic rate was subtracted to establish the activity.
For FadE and YdiO, Butyryl-CoA dehydrogenase activity was measured utilizing ferricenium ion^49. Reactions were performed in 50 mM potassium phosphate pH 7.2, 0.4 mM MgSO4, 200 μM ferrocenium hexafluorophosphate, and 200 μM Butyryl-CoA and monitored the formation of the reduced ferrocene ion at 300 nm (ε=4.3 mM^−1 cm^−1).

[3] = crotonyl-CoA reductase activity (loss of NADH absorbance); conditions: substrate Crotonyl-CoA; supernatant fraction; expressed from pTrcHis2A
Protocol: as §1, §2, §3

[4] = crotonase activity (loss of crotonoyl-CoA at 263 nm); conditions: substrate Crotonyl-CoA; supernatant fraction; expressed from pUCBB-ntH6
Protocol: as §1, §2, §3

[5] = forward thiolase assay (biosynthetic direction), coupled with caHBD; conditions: substrate Acetyl-CoA; supernatant fraction; AtoB expressed from pCA24N, FadA from pUCBB-ntH6
Protocol: as §1, §2, §3

[6] = thiolase activity in the reverse direction (loss of acetoacetyl-CoA at 303 nm); conditions: substrate Acetoacetyl-CoA; supernatant fraction; AtoB expressed from pCA24N, FadA from pUCBB-ntH6
Protocol: as §1, §2, §3

B1: paaH: E. coli 3-hydroxyadipyl-CoA dehydrogenase that participates in the degradation of phenylacetate (protein, UniProt P76083 1-475, looked up)
3-hydroxyadipyl-CoA …: MMINVQTVAVIGSGTMGAGIAEVAASHGHQVLLYDISAEALTRAIDGIHARLNSRVTRGKLTAETCERTLKRLIPVTDIHALAAADLVIEAASERLEVKKALFAQLAEVCPPQTLLTTNTSSISITAIAAEIKNPERVAGLHFFNPAPVMKLVEVVSGLATAAEVVEQLCELTLSWGKQPVRCHSTPGFIVNRVARPYYSEAWRALEEQVAAPEVIDAALRDGAGFPMGPLELTDLIGQDVNFAVTCSVFNAFWQERRFLPSLVQQELVIGGRLGKKSGLGVYDWRAEREAVVGLEAVSDSFSPMKVEKKSDGVTEIDDVLLIETQGETAQALAIRLARPVVVIDKMAGKVVTIAAAAVNPDSATRKAIYYLQQQGKTVLQIADYPGMLIWRTVAMIINEALDALQKGVASEQDIDTAMRLGVNYPYGPLAWGAQLGWQRILRLLENLQHHYGEERYRPCSLLRQRALLESGYES
- specific activity toward the reduction of acetoacetyl-CoA ([1]; purified enzyme, data not shown): moderate

B2: FadE: E. coli acyl-CoA dehydrogenase, a medium-long-chain fatty acyl-CoA dehydrogenase (protein, UniProt Q47146 1-814, looked up)
Acyl-coenzyme A dehydrogenase: MMILSILATVVLLGALFYHRVSLFISSLILLAWTAALGVAGLWSAWVLVPLAIILVPFNFAPMRKSMISAPVFRGFRKVMPPMSRTEKEAIDAGTTWWEGDLFQGKPDWKKLHNYPQPRLTAEEQAFLDGPVEEACRMANDFQITHELADLPPELWAYLKEHRFFAMIIKKEYGGLEFSAYAQSRVLQKLSGVSGILAITVGVPNSLGPGELLQHYGTDEQKDHYLPRLARGQEIPCFALTSPEAGSDAGAIPDTGIVCMGEWQGQQVLGMRLTWNKRYITLAPIATVLGLAFKLSDPEKLLGGAEDLGITCALIPTTTPGVEIGRRHFPLNVPFQNGPTRGKDVFVPIDYIIGGPKMAGQGWRMLVECLSVGRGITLPSNSTGGVKSVALATGAYAHIRRQFKISIGKMEGIEEPLARIAGNAYVMDAAASLITYGIMLGEKPAVLSAIVKYHCTHRGQQSIIDAMDITGGKGIMLGQSNFLARAYQGAPIAITVEGANILTRSMMIFGQGAIRCHPYVLEEMEAAKNNDVNAFDKLLFKHIGHVGSNKVRSFWLGLTRGLTSSTPTGDATKRYYQHLNRLSANLALLSDVSMAVLGGSLKRRERISARLGDILSQLYLASAVLKRYDDEGRNEADLPLVHWGVQDALYQAEQAMDDLLQNFPNRVVAGLLNVVIFPTGRHYLAPSDKLDHKVAKILQVPNATRSRIGRGQYLTPSEHNPVGLLEEALVDVIAADPIHQRICKELGKNLPFTRLDELAHNALVKGLIDKDEAAILVKAEESRLRSINVDDFDPEELATKPVKLPEKVRKVEAA
- activity upon purification ([2]; purified enzyme): no detectable activities
- Specific Activity ([2]; substrate Butyryl-CoA, crude extract of cells, expressed from pCA24N): 0.008 ± 0.001^b μmol/mg/min

B3: egTER: NAD(P)H-dependent trans-2-enoyl-CoA reductase from Euglena gracilis (protein, UniProt Q5EU90 69-539, looked up)
Trans-2-enoyl-CoA reductase: VPQMAEGFSGEATSAWAAAGPQWAAPLVAAASSALALWWWAARRSVRRPLAALAELPTAVTHLAPPMAMFTTTAKVIQPKIRGFICTTTHPIGCEKRVQEEIAYARAHPPTSPGPKRVLVIGCSTGYGLSTRITAAFGYQAATLGVFLAGPPTKGRPAAAGWYNTVAFEKAALEAGLYARSLNGDAFDSTTKARTVEAIKRDLGTVDLVVYSIAAPKRTDPATGVLHKACLKPIGATYTNRTVNTDKAEVTDVSIEPASPEEIADTVKVMGGEDWELWIQALSEAGVLAEGAKTVAYSYIGPEMTWPVYWSGTIGEAKKDVEKAAKRITQQYGCPAYPVVAKALVTQASSAIPVVPLYICLLYRVMKEKGTHEGCIEQMVRLLTTKLYPENGAPIVDEAGRVRVDDWEMAEDVQQAVKDLWSQVSTANLKDISDFAGYQTEFLRLFGFGIDGVDYDQPVDVEADLPSAAQQ
- Specific Activity [3]: 5.4 ± 0.6^d μmol/mg/min

B4: FadB: E. coli hydroxyacyl-CoA dehydrogenase and enoyl-CoA hydratase, part of fatty acid oxidation complex (protein, UniProt P21177 1-729, looked up)
Fatty acid oxidation complex …: MLYKGDTLYLDWLEDGIAELVFDAPGSVNKLDTATVASLGEAIGVLEQQSDLKGLLLRSNKAAFIVGADITEFLSLFLVPEEQLSQWLHFANSVFNRLEDLPVPTIAAVNGYALGGGCECVLATDYRLATPDLRIGLPETKLGIMPGFGGSVRMPRMLGADSALEIIAAGKDVGADQALKIGLVDGVVKAEKLVEGAKAVLRQAINGDLDWKAKRQPKLEPLKLSKIEATMSFTIAKGMVAQTAGKHYPAPITAVKTIEAAARFGREEALNLENKSFVPLAHTNEARALVGIFLNDQYVKGKAKKLTKDVETPKQAAVLGAGIMGGGIAYQSAWKGVPVVMKDINDKSLTLGMTEAAKLLNKQLERGKIDGLKLAGVISTIHPTLDYAGFDRVDIVVEAVVENPKVKKAVLAETEQKVRQDTVLASNTSTIPISELANALERPENFCGMHFFNPVHRMPLVEIIRGEKSSDETIAKVVAWASKMGKTPIVVNDCPGFFVNRVLFPYFAGFSQLLRDGADFRKIDKVMEKQFGWPMGPAYLLDVVGIDTAHHAQAVMAAGFPQRMQKDYRDAIDALFDANRFGQKNGLGFWRYKEDSKGKPKKEEDAAVEDLLAEVSQPKRDFSEEEIIARMMIPMVNEVVRCLEEGIIATPAEADMALVYGLGFPPFHGGAFRWLDTLGSAKYLDMAQQYQHLGPLYEVPEGLRNKARHNEPYYPPVEPARPVGDLKTA
- Specific Activity ([1]; substrate Acetoacetyl-CoA, supernatant fraction, expressed from pUCBB-ntH6): 0.185 ± 0.001^c μmol/mg/min
- Specific Activity [4]: 0.051 ± 0.004^c μmol/mg/min

B5: FadA: E. coli 3-ketoacyl-CoA thiolase (thiolase I), a component of fatty acid oxidation complex FadAB (protein, UniProt P21151 1-387, looked up)
3-ketoacyl-CoA thiolase FadA: MEQVVIVDAIRTPMGRSKGGAFRNVRAEDLSAHLMRSLLARNPALEAAALDDIYWGCVQQTLEQGFNIARNAALLAEVPHSVPAVTVNRLCGSSMQALHDAARMIMTGDAQACLVGGVEHMGHVPMSHGVDFHPGLSRNVAKAAGMMGLTAEMLARMHGISREMQDAFAARSHARAWAATQSAAFKNEIIPTGGHDADGVLKQFNYDEVIRPETTVEALATLRPAFDPVNGMVTAGTSSALSDGAAAMLVMSESRAHELGLKPRARVRSMAVVGCDPSIMGYGPVPASKLALKKAGLSASDIGVFEMNEAFAAQILPCIKDLGLIEQIDEKINLNGGAIALGHPLGCSGARISTTLLNLMERKDVQFGLATMCIGLGQGIATVFERV
- Specific Activity [5]: Not detected^c
- Specific Activity [6]: 0.013 ± 0.002^c μmol/mg/min
